Assay results published in US20160215040A1 (Regeneron, published 2016).

T1: Ebola virus GP, Sudan strain, on VLPs (Ebola virus, Sudan strain, UniProt Q7T9D9 33-676)
T1 construct: also called Sudan NC_006432
T1 sequence: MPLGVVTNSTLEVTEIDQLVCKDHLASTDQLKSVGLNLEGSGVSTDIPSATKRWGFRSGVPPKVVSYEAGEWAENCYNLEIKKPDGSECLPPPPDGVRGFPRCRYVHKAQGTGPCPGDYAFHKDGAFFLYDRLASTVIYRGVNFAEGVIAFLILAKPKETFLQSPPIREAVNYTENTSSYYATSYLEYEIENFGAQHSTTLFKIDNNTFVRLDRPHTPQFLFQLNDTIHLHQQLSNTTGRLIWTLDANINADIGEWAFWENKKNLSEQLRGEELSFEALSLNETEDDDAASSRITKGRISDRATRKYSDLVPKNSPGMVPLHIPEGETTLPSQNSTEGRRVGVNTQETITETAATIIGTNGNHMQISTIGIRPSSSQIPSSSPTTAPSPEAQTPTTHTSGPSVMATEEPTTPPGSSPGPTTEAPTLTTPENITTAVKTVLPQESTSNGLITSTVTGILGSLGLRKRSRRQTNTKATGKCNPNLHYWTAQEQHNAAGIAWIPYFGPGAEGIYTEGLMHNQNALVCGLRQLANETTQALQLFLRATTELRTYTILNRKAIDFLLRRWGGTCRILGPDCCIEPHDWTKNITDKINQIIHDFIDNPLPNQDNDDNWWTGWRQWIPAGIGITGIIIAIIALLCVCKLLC

T2: hCNTFR.mmh (ciliary neurotrophic factor receptor.mmh) (human (printed as hCNTFR), UniProt P26992 23-342)
T2 construct: also called negative control protein; not shown: mmh (myc-myc-hexahistidine) tag
T2 sequence: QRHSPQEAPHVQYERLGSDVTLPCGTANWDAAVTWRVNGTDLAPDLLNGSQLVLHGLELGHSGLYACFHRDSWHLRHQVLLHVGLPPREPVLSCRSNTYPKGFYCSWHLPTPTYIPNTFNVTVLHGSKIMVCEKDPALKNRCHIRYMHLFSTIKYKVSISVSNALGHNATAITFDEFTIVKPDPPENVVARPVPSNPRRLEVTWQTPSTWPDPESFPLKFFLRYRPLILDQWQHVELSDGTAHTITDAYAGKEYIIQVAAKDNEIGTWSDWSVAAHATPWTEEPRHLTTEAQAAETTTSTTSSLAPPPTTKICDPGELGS

T3: Ebola virus GP, Cote d'Ivoire strain, on VLPs (Ebola virus, Cote d'Ivoire strain, UniProt Q66810 33-676)
T3 construct: also called Cote d'Ivoire FJ217162; Ivory Coast
T3 sequence: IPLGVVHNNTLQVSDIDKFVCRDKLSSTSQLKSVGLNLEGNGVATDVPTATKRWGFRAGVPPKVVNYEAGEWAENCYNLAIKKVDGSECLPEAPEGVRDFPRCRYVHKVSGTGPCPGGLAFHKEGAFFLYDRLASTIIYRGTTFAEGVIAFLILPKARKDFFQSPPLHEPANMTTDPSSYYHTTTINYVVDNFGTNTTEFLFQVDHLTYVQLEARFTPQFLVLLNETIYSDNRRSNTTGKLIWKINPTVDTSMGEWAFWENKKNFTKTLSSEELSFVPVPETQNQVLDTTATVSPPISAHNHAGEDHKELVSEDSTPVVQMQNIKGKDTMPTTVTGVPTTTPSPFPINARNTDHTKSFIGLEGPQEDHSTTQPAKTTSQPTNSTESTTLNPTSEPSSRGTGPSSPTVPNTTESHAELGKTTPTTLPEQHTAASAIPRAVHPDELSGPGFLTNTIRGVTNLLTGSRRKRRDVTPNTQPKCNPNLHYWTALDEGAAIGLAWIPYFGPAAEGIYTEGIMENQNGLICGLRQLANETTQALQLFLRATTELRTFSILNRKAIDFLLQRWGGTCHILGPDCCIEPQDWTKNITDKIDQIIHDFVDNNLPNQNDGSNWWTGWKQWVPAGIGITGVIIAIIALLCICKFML


Assays:
[1] = target: T1, Ebola virus GP, Sudan strain, on VLPs; test: MSD, VLPs coated
[2] = target: T4, Ebola virus GP with a C-terminal polyhistidine tag (Sino Biologicals, Catalog #40442-V08B1) (Ebola virus, UniProt P87666 33-650); test: SPR 25C, mAb captured
T4 construct: also called EbolaGP.his; Ebola virus GP.his

[3] = target: T4, Ebola virus GP with a C-terminal …; test: SPR 37C, mAb captured, pH chase
[4] = target: T4, Ebola virus GP with a C-terminal …; test: SPR 37C, mAb captured
[5] = target: T2, hCNTFR.mmh (ciliary neurotrophic factor …); test: BLI, mAb captured, 25C
[6] = target: T3, Ebola virus GP, Cote d'Ivoire strain, …; test: MSD, VLPs coated

Binder	binding result [1]	Kd [2] [nM]	koff [2] [s⁻¹]	kon [2] [M⁻¹ s⁻¹]	t½ [2] [min]	t½ ratio pH 7.4/pH 5.0 [3]	t½ ratio pH 7.4/pH 6.0 [3]	Kd [4] [nM]	koff [4] [s⁻¹]	kon [4] [M⁻¹ s⁻¹]	t½ [4] [min]	binding result [5]	binding result [6]
H1H17142P (antibody, V domains shown) VH: EVQLVESGGGLVQPGGSLRLSCAASGFTFSSYAMTWVRQAPGKGLEWVSSISGSGTSTYYADSVKGRFTISRDNSKNTLYLQMNSLRAEDTALYYCSRDIYTWNFLSLIGGMDVWGQGTTVTVSS VL: DIQMTQSPSSLSASVGDRVTITCRASQGIRIDLGWYQQKPGKAPNRLIYAASSLQGGVPSRFSGSGSGTEFTLTISSLQPEDFATYYCLQQNSYPWTFGQGTKVEIK	no binding	1.41	2.81e-05	20000	411	0.5	0.5	6.68	0.000174	26000	66.6	no binding (tested: below 0.10 nm at 300 nM)	–
H1H17151P (antibody, V domains shown) VH: EVQLVESGGGLVQPGGSLRLSCAASGFTFSSYAMNWVRQAPGKGLEWVSVISGSGGWRNYADSVKGRITISRDNSKNTLYLQMNNLRAEDTAVYYCAKDRGATFGVVILGPPYYGMDVWGQGTTVTVSS VL: DIQMTQSPSSLSASVRDRVTITCRASQSISTYLNWYQQKPGKAPKLLIYAASSLQSGVPSRFSGSGSGTGFTLTISSLQPEDFATYYCQQSYSIPYTFGQGTKLEIK	no binding	7.49	9.44e-05	12600	122	0.01	0.03	17	0.000383	22600	30.2	–	no binding
H1M17357N (antibody, V domains shown, also called HCAF09D11-13) VH: QVQLVQSGAEVKKPGASVKVSCKASGYTFTSYYMHWVRQAPGQGLEWMGIINPSGGSTSYAQKFQGRVTMTRDTSTSTVYMELSSLRSEDTAVYYCAREIGEAGEVFNYWGQGTLVTVSS VL: DIQMTQSPSSLSASVGDRVTITCRASQSISRYLNWYQHKPGKAPKVLIYAASILQSGVPSRFSGSGSGTDFTLTISSLQPEDFATYYCQQSYSTPPITFGQGTRLEIK	no binding	–	–	–	–	0.5	0.8	78.1	0.00184	23500	6.3	no binding (tested: below 0.10 nm at 300 nM)	no binding
H2aM17359N (antibody, V domains shown, also called HCAF12C06-26) VH: EVQLVESGGGLAQPGGSLRLSCAASGFTFSSHEMNWVRQAPGKGLEWVSYISRSGRIINYADSVKGRFTISRDNAKNSLYLQMNSLRAEDTAVYYCARERGSYYDILTGSQDYGMDVWGQGTTVTVSS VL: not shown	no binding	50.9	0.000195	3820	59.4	0.7	0.8	22.9	0.000352	15400	32.8	–	no binding
H1H17359N (antibody, V domains shown) VH: EVQLVESGGGLAQPGGSLRLSCAASGFTFSSHEMNWVRQAPGKGLEWVSYISRSGRIINYADSVKGRFTISRDNAKNSLYLQMNSLRAEDTAVYYCARERGSYYDILTGSQDYGMDVWGQGTTVTVSS VL: not shown	–	–	–	–	–	–	–	–	–	–	–	no binding (tested: below 0.10 nm at 300 nM)	–
H1H17162P (antibody, V domains shown) VH: EVQLVESGGGLVQPGGSLRLSCAASEFTFSSYAMSWVRQAPGKGLEWVSAISGSSGSTYYADSVKGRFTISRDNSKKTLYLQMNSLRVEDTAVYYCAKGGYPHSFDIWGHGTMVTVSS VL: DIQMTQSPSSLSASVGDRVTITCRASQSISSFLNWYQQKPGKAPKLLIYAASSLQSGVPSRFSGSGSGTDFTLTISSLQPEDFATYYCQQSYSSITFGQGTRLEIK	–	≤ 0.46	≤ 1e-05	21800	≥ 1160	0.3	0.3	0.288	≤ 1e-05	34700	≥ 1160	no binding (tested: below 0.10 nm at 300 nM)	no binding
H1H17161P (antibody, V domains shown, also called REGN H1H17161P) VH: EVQLVESGGGLVQPGGSLRLSCAASGFTSSSYAMNWVRQAPGKGLEWVSTISGMGGSTYYADSVKGRFTISRDNSKNTLYLQMNSLRAEDTAVYYCAKRGYPHSFDIWGQGTMVTVSS VL: not shown	–	≤ 0.189	≤ 1e-05	52900	≥ 1160	0.2	0.2	0.228	≤ 1e-05	43900	≥ 1160	–	no binding
H1H17134P (antibody, V domains shown) VH: QLQLQESGPGLVKPSETLSLTCTVSGGSISSSSYYWGWIRQPPGKGLEWIGSIYYDGDTYYNPSLKSRVTISVDTSKNQFSLRLSSVTAADTAVYYCARQFDYWGQGTLVTVSS VL: not shown	no binding	12.3	0.000941	76500	12.3	0.6	0.6	6.7	0.000469	69900	24.6	–	no binding
H2aM17356N (antibody, V domains shown, also called HCAF08C07-09) VH: EVQLVESGGGLVQPGGSLRLSCAASGFTFSSYEMNWVRQAPGKGLEWVSYIGSSGRATYYADSVKGRFTISRDNAKNSLYLQMNSLRAEDTAVYYCARPSSIAALLRNQYHFGMDVWGQGTTVTVSS VL: not shown	no binding	4.4	9.57e-05	21800	121	0.9	0.9	34.4	0.00025	7260	46.2	–	–
H1H17360N (antibody, V domains shown) VH: EVQLVESGGGLVQPGGSLRLSCAASGFTFSSYEMNWVRQAPGKGLEWVSYISSSGSTKYYADSVKGRFTISRDNAKNSLYLQMNSLRAEDTAVYYCARPSSIPALLRNQYHYGMDVWGQGTTVTVSS VL: not shown	no binding	–	–	–	–	–	–	–	–	–	–	no binding (tested: below 0.10 nm at 300 nM)	no binding
H1H17358N2 (antibody, V domains shown) VH: EVQLVESGGGLVQPGGSLRLSCAASGFTFSTYEMNWVRQAPGKGLEWVSYSSSSGRTIYYADSVKGRFTISRDNAKNSLFLQMNSLRAEDTAVYYCARPSSIETLLRNQYHYGVDVWGQGTTVTVSS VL: not shown	no binding	–	–	–	–	–	–	–	–	–	–	no binding (tested: below 0.10 nm at 300 nM)	no binding
H1H17356N (antibody, V domains shown) VH: EVQLVESGGGLVQPGGSLRLSCAASGFTFSSYEMNWVRQAPGKGLEWVSYIGSSGRATYYADSVKGRFTISRDNAKNSLYLQMNSLRAEDTAVYYCARPSSIAALLRNQYHFGMDVWGQGTTVTVSS VL: not shown	–	–	–	–	–	–	–	–	–	–	–	no binding (tested: below 0.10 nm at 300 nM)	–
